# Reference: article PMC10213058
# Target: mouse pendrin (SLC26A4), full length (mouse)
# Test: cryo-EM structure; single-particle cryo-EM of purified pendrin in 0.02% GDN, about 1.7 mg/mL, pH 8.0-8.3; samples in 150 mM NaCl (pendrin-Cl), NaHCO3 (pendrin-HCO3), Cl/HCO3, Cl/I and HCO3/I; symmetric and asymmetric homodimers
substance,measurement,value
"mouse pendrin (SLC26A4), full length (natural protein)",stoichiometry N,2
